In paper PMC10686790, “Crystal structure of the GDSL family esterase EstL5 in complex with PMSF reveals a branch channel of the active site pocket” (Acta Biochimica et Biophysica Sinica, 2023) one finds Km and kcat data, which are given here for three proteins.

B1: EstL5 (Geobacillus thermodenitrificans) (protein)
chain: ALVVQDQLFTAAKPSIEQKRPSANEAKKRDGEIDIVALGDSLTRGTGDESGKGYIGYMVDELRQQTDEPIRVTNLAIRGLRSDGLLRQLGQSEIQRQIAMADLIVMTIGGNDLFQGGEALEWNVKELDEAKRQYIANLDRIFALLRRLNSEAVIFAIGLYNPFSDLDDAKRTSAIVRDWNFASAEVAAHYPNIVAVPTFDLFALHVNDYLYSDHFHPNKEGYKRIGERVASLITLTEEDRQ
notes: without deduced signal peptide, N-terminal His tag, pET28b, E. coli BL21(DE3); two molecules in asymmetric unit
B2: EstL5 (Geobacillus thermodenitrificans; S207W) (protein)
chain: B1 chain with S183W
notes: as for B1
B3: EstL5 (Geobacillus thermodenitrificans; S207F) (protein)
chain: B1 chain with S183F
notes: as for B1

The Km is the concentration of substrate that gives half-maximal velocity.

Positions count from the first letter of the chain named. Numbers in names are those of the source.

Substrate in the data set: CCCC(=O)Oc1ccc([N+](=O)[O-])cc1
The data set can be described thus: purified protein. Format: biochemical, Geobacillus thermodenitrificans. As to conditions: 20 mM Tris-HCl pH 8.0, 30°C.
B1: the Km worked out at 640 ± 2210 µM and the kcat is reported as 116.27±1.71 S-1.
On the same counts, the results for B2 are 790 ± 2670 µM and 86.78±1.03 S-1.
The like results for B3 were, in that order, 650 ± 1920 µM and 86.51±1.68 S-1.
